Tests used:
[1] = substrate: OC[C@H]1O[C@@H](O[C@H]2[C@H](O)[C@@H](O)[C@H](O[C@H]3[C@H](O)[C@@H](O)C(O)O[C@@H]3CO)O[C@@H]2CO)[C@H](O)[C@@H](O)[C@@H]1O; assay: purified protein, by the assay type; settings: other: cellotriose, 5 mM acetate pH 5.0, 50 degrees C, 50.0 °C
[2] = substrate: OC[C@H]1O[C@@H](O[C@H]2[C@H](O)[C@@H](O)[C@H](O[C@H]3[C@H](O)[C@@H](O)C(O)O[C@@H]3CO)O[C@@H]2CO)[C@H](O)[C@@H](O)[C@@H]1O; assay: purified protein, by the assay type; assay type: biochemical, Acidothermus cellulolyticus; settings: other: cellotriose, 5 mM acetate pH 5.0, 50 degrees C, 50.0 °C
Procedure: Each assay mixture was pre-incubated at 50 degrees C. for 10 min. prior to the addition of 0.00272 micromolar (0. 1092 microgram/mL) enzyme, which was also made up in 5 mM acetate buffer with 10 microgram/mL BSA. The final assay volume was 0.1 mL.
At set-time intervals, an aliquot of the reaction mixture was pulled and immediately analyzed for the release of cellobiose using a Dionex DX300 chromatography system and a Dionex PAD2 pulsed amperometric detector having a gold working electrode. The response of this detector was optimized for the detection of carbohydrates using a waveform defined by the following time and potential settings: t1=420 msec.; EI=+0.05 V; t2=180 msec.; E2=+0.75 V; t3=360 msec.; and E3=−0.15 V. Separation of the reaction products, from the substrate, was achieved on a Dionex CarboPac PA-1 analytical (4×250 mm) column equipped with CarboPac PA-1 (4×50 uard column, 500 mM sodium hydroxide eluent, and a flow rate of 1.5 mL/min. The amount of cellobiose present for each time-point-sample was quantified by comparing the area of the cellobiose peak against a linear calibration curve. The kinetic constants were determined with a double-reciprocal-plot, where the reciprocal of the rate of cellobiose produced was plotted as a function of the inverse of the substrate concentration.
Michaelis-Menten kinetics of the mutant EI enzymes and the native enzyme were determined.

B1: Acidothermus cellulolyticus EI endoglucanase (Cel5A) catalytic domain, native (wild type), SEQ ID NO:3 of U.S. Pat. No. 5,536,655 (Acidothermus cellulolyticus … (protein)
chain: AGGGYWHTSGREILDANNVPVRIAGINWFGFETCNYVVHGLWSRDYRSMLDQIKSLGYNTIRLPYSDDILKPGTMPNSINFYQMNQDLQGLTSLQVMDKIVAYAGQIGLRIILDRHRPDCSGQSALWYTSSVSEATWISDLQALAQRYKGNPTVVGFDLHNEPHDPACWGCGDPSIDWRLAAERAGNAVLSVNPNLLIFVEGVQSYNGDSYWWGGNLQGAGQYPVVLNVPNRLVYSAHDYATSVYPQTWFSDPTFPNNMPGIWNKNWGYLFNQNIAPVWLGEFGTTLQSTTDQTWLKTLVQYLRPTAQYGADSFQWTFWSWNPDSGDTGGILKDDWQTVDTVKDGYLAPIKSSIFDPVG
For B1, the Km [1] was 350 µM and the Vmax [1] was 0.86 µM/min.

B2: Acidothermus cellulolyticus EI endoglucanase (Cel5A) catalytic domain variant W42R, SEQ ID NO:1 (Acidothermus cellulolyticus 11B; W83R) (protein)
chain: AGGGYWHTSGREILDANNVPVRIAGINWFGFETCNYVVHGLRSRDYRSMLDQIKSLGYNTIRLPYSDDILKPGTMPNSINFYQMNQDLQGLTSLQVMDKIVAYAGQIGLRIILDRHRPDCSGQSALWYTSSVSEATWISDLQALAQRYKGNPTVVGFDLHNEPHDPACWGCGDPSIDWRLAAERAGNAVLSVNPNLLIFVEGVQSYNGDSYWWGGNLQGAGQYPVVLNVPNRLVYSAHDYATSVYPQTWFSDPTFPNNMPGIWNKNWGYLFNQNIAPVWLGEFGTTLQSTTDQTWLKTLVQYLRPTAQYGADSFQWTFWSWNPDSGDTGGILKDDWQTVDTVKDGYLAPIKSSIFDPV
notes: the protein was genetically truncated near the beginning of the linker peptide; made in house; host or cells: E. coli XL1-blue
Protein B2 has a Km [2] of 610 µM and a Vmax [2] of 0.99 µM/min.

B3: Acidothermus cellulolyticus EI endoglucanase (Cel5A) catalytic domain variant Y245G, SEQ ID NO:3 (Acidothermus cellulolyticus 11B; Y286G) (protein)
chain: AGGGYWHTSGREILDANNVPVRIAGINWFGFETCNYVVHGLWSRDYRSMLDQIKSLGYNTIRLPYSDDILKPGTMPNSINFYQMNQDLQGLTSLQVMDKIVAYAGQIGLRIILDRHRPDCSGQSALWYTSSVSEATWISDLQALAQRYKGNPTVVGFDLHNEPHDPACWGCGDPSIDWRLAAERAGNAVLSVNPNLLIFVEGVQSYNGDSYWWGGNLQGAGQYPVVLNVPNRLVYSAHDYATSVGPQTWFSDPTFPNNMPGIWNKNWGYLFNQNIAPVWLGEFGTTLQSTTDQTWLKTLVQYLRPTAQYGADSFQWTFWSWNPDSGDTGGILKDDWQTVDTVKDGYLAPIKSSIFDPV
notes: the mutant and wild type Cel5A catalytic domains were purified using the purification methods described above; made in house; host or cells: E. coli XL1-blue
B3 gave a Km [2] of 480 µM and a Vmax [2] of 0.85 µM/min.

B4: Acidothermus cellulolyticus EI endoglucanase (Cel5A) catalytic domain variant Y82R, SEQ ID NO:2 (Acidothermus cellulolyticus 11B; Y123R) (protein)
chain: AGGGYWHTSGREILDANNVPVRIAGINWFGFETCNYVVHGLWSRDYRSMLDQIKSLGYNTIRLPYSDDILKPGTMPNSINFRQMNQDLQGLTSLQVMDKIVAYAGQIGLRIILDRHRPDCSGQSALWYTSSVSEATWISDLQALAQRYKGNPTVVGFDLHNEPHDPACWGCGDPSIDWRLAAERAGNAVLSVNPNLLIFVEGVQSYNGDSYWWGGNLQGAGQYPVVLNVPNRLVYSAHDYATSVYPQTWFSDPTFPNNMPGIWNKNWGYLFNQNIAPVWLGEFGTTLQSTTDQTWLKTLVQYLRPTAQYGADSFQWTFWSWNPDSGDTGGILKDDWQTVDTVKDGYLAPIKSSIFDPV
notes: as for B2
B4 gave a Km [2] of 690 µM and a Vmax [2] of 1.5 µM/min.

Reference: patent US20030054535A1, “Endoglucanase mutants and mutant hydrolytic depolymerizing enzymes and uses thereof” (priority 1999, published 2003)
